Source: patent US7528109 (GEORGETOWN UNIVERSITY, dated 2009)

Key:
[1] = biological target: T1, ALK (anaplastic lymphoma kinase) receptor, full length, expressed on cells (human, UniProt Q9UM73 19-1620); experiment: saturation binding of 35S-labeled PTN to 32D/ALK cells
T1 construct: U87MG cells carry endogenous human ALK; also called PTNR; PTN receptor

[2] = biological target: T1, ALK (anaplastic lymphoma kinase) …; experiment: saturation binding of 35S-labeled PTN to 32D/ALK cells, non-linear regression
Experimental: For this, ALK-negative mouse hematopoietic cell line 32D was used which grows in suspension culture and expressed the ALK protein in these cells. Also used was ^35S-labeled PTN from metabolic labeling experiments as a ligand for the receptor binding studies. Briefly, cell lysates were then prepared and a total of 3 mg of cellular proteins subjected to immunoprecipitation as described. (Souttou et al., 1997). For uncoupled antibodies, Sepharose-bound protein G (Gammabind plus, Amersham/Pharmacia) was used to precipitate immunocomplexes. Antibodies were anti-phosphotyrosine (agarose-coupled 4G10, 30 µl; UBI, Lake Placid NY), anti-PTNR (a cocktail of antibodies from Santa Cruz Biotechnology, Santa Cruz Calif. and from Accurate Chemicals, Westburg N.Y.), anti-IRS-1 (3 µg of rabbit IgG). Resulting precipitates were analyzed by SDS polyacrylamide gel electrophoresis. Experimental procedures for immunoblots for phosphotyrosine, IRS-1 (anti-IRS-1, Transduction Laboratories, Lexington Ky.), PLC-gamma (anti-PLC-gamma, UBI)and PI3-kinase (UBI) using unlabelled cells as described (Souttou et al., 1997).
Saturation binding of radiolabeled PTN to 32D/ALK (filled symbols) and 32D/control cells (open symbols) (FIG. 2b). Data were pooled from two independent experiments with triplicate repeat measurements of data points. […]

T1 sequence (Q9UM73 other isoform, or with tags, fused parts or gaps limits assumed): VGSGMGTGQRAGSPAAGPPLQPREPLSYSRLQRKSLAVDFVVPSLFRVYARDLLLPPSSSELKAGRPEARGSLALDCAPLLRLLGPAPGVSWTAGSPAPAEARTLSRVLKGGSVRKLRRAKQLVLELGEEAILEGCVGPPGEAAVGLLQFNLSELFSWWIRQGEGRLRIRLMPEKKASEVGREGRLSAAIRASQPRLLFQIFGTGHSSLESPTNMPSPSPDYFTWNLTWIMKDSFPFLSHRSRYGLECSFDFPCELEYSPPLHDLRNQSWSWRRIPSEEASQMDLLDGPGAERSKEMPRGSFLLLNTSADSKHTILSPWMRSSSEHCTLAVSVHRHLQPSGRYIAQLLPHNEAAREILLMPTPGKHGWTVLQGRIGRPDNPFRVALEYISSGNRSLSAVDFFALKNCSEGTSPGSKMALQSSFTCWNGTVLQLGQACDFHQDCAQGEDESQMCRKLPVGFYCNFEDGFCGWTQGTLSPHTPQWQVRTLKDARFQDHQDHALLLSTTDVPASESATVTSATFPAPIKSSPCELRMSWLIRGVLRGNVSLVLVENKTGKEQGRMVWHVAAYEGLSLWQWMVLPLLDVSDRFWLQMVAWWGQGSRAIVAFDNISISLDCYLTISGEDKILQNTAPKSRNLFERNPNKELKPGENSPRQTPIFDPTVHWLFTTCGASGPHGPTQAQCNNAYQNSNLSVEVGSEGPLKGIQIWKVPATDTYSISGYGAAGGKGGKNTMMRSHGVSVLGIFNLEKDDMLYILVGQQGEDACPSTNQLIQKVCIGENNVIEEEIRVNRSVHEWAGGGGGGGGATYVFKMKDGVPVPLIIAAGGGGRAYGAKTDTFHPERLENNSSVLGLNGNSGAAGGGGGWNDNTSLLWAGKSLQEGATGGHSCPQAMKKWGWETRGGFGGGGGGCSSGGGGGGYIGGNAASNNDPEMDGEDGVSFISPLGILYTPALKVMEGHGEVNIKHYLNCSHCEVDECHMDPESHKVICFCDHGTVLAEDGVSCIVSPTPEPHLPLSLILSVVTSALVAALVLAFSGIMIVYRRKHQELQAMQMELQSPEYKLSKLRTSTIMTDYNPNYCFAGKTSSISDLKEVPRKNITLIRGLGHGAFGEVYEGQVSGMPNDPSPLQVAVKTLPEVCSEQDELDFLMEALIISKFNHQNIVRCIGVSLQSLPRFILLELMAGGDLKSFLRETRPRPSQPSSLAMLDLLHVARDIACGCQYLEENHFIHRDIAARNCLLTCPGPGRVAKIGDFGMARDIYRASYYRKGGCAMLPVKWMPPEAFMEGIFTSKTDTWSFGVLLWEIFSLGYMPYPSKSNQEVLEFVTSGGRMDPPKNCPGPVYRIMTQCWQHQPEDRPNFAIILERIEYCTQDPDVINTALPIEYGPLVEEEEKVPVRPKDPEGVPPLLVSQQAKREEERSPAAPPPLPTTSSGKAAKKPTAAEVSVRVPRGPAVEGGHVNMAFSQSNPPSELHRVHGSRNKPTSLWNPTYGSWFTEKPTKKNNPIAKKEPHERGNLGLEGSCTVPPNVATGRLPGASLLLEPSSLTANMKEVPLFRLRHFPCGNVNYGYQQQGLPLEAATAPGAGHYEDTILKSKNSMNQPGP

B1: pleiotrophin (PTN), purified from the culture supernatant of cells transfected with the human PTN cDNA (ligand, UniProt P21246 33-168, looked up)
chain: GKKEKPEKKVKKSDCGEWQWSVCVPTSGDCGLGTREGTRTGAECKQTMKTQRCKIPCNWKKQFGAECKYQFQAWGECDLNTALKTRTGSLKRALHNAECQKTVTISKPCGKLTKPKPQAESKKKKKEGKKQEKMLD
notes: also called PTN ligand; radiolabeled PTN
Q: Which Kd [1] does the source give for B1 here?
A: 0.03 to 0.04 nM

Q: What about the Kd [2] of the same binder?
A: 0.032 nM
